Tests used:
Test in all cases: epitope map assay, OD on overlapping 10-mer peptides
NKGAIIGLMV = target: T1, NKGAIIGLMV
T1 construct: Aβ 27-36
T1 peptide: NKGAIIGLMV

VFFAEDVGSN = target: T2, VFFAEDVGSN
T2 construct: Aβ 18-27
T2 peptide: VFFAEDVGSN

HHQKLVFFAE = target: T3, HHQKLVFFAE
T3 construct: Aβ 13-22
T3 peptide: HHQKLVFFAE

GAIIGLMVGG = target: T4, GAIIGLMVGG
T4 construct: Aβ 29-38
T4 peptide: GAIIGLMVGG

KLVFFAEDVG = target: T5, KLVFFAEDVG
T5 construct: Aβ 16-25
T5 peptide: KLVFFAEDVG

MVGGVVIATV = target: T6, MVGGVVIATV
T6 construct: Aβ 35-43 + one further APP residue
T6 peptide: MVGGVVIATV

DSGYEVHHQK = target: T7, DSGYEVHHQK
T7 construct: Aβ 7-16
T7 peptide: DSGYEVHHQK

KGAIIGLMVG = target: T8, KGAIIGLMVG
T8 construct: Aβ 28-37
T8 peptide: KGAIIGLMVG

EVHHQKLVFF = target: T9, EVHHQKLVFF
T9 construct: Aβ 11-20
T9 peptide: EVHHQKLVFF

SNKGAIIGLM = target: T10, SNKGAIIGLM
T10 construct: Aβ 26-35
T10 peptide: SNKGAIIGLM

YEVHHQKLVF = target: T11, YEVHHQKLVF
T11 construct: Aβ 10-19
T11 peptide: YEVHHQKLVF

VKMDAEFRHD = target: T12, VKMDAEFRHD
T12 construct: APP flank + Aβ 1-7
T12 peptide: VKMDAEFRHD

AEFRHDSGYE = target: T13, AEFRHDSGYE
T13 construct: Aβ 2-11
T13 peptide: AEFRHDSGYE

HQKLVFFAED = target: T14, HQKLVFFAED
T14 construct: Aβ 14-23
T14 peptide: HQKLVFFAED

FRHDSGYEVH = target: T15, FRHDSGYEVH
T15 construct: Aβ 4-13
T15 peptide: FRHDSGYEVH

LVFFAEDVGS = target: T16, LVFFAEDVGS
T16 construct: Aβ 17-26
T16 peptide: LVFFAEDVGS

QKLVFFAEDV = target: T17, QKLVFFAEDV
T17 construct: Aβ 15-24
T17 peptide: QKLVFFAEDV

ISEVKMDAEF = target: T18, ISEVKMDAEF
T18 construct: APP flank + Aβ 1-4
T18 peptide: ISEVKMDAEF

SEVKMDAEFR = target: T19, SEVKMDAEFR
T19 construct: APP flank + Aβ 1-5
T19 peptide: SEVKMDAEFR

RHDSGYEVHH = target: T20, RHDSGYEVHH
T20 construct: Aβ 5-14
T20 peptide: RHDSGYEVHH

EFRHDSGYEV = target: T21, EFRHDSGYEV
T21 construct: Aβ 3-12
T21 peptide: EFRHDSGYEV

FFAEDVGSNK = target: T22, FFAEDVGSNK
T22 construct: Aβ 19-28
T22 peptide: FFAEDVGSNK

AEDVGSNKGA = target: T23, AEDVGSNKGA
T23 construct: Aβ 21-30
T23 peptide: AEDVGSNKGA

EVKMDAEFRH = target: T24, EVKMDAEFRH
T24 construct: APP flank + Aβ 1-6
T24 peptide: EVKMDAEFRH

IIGLMVGGVV = target: T25, IIGLMVGGVV
T25 construct: Aβ 31-40
T25 peptide: IIGLMVGGVV

EEISEVKMDA = target: T26, EEISEVKMDA
T26 construct: APP flank + Aβ 1-2
T26 peptide: EEISEVKMDA

SGYEVHHQKL = target: T27, SGYEVHHQKL
T27 construct: Aβ 8-17
T27 peptide: SGYEVHHQKL

FAEDVGSNKG = target: T28, FAEDVGSNKG
T28 construct: Aβ 20-29
T28 peptide: FAEDVGSNKG

LMVGGVVIAT = target: T29, LMVGGVVIAT
T29 construct: Aβ 34-43
T29 peptide: LMVGGVVIAT

GSNKGAIIGL = target: T30, GSNKGAIIGL
T30 construct: Aβ 25-34
T30 peptide: GSNKGAIIGL

EISEVKMDAE = target: T31, EISEVKMDAE
T31 construct: APP flank + Aβ 1-3
T31 peptide: EISEVKMDAE

EDVGSNKGAI = target: T32, EDVGSNKGAI
T32 construct: Aβ 22-31
T32 peptide: EDVGSNKGAI

DAEFRHDSGY = target: T33, DAEFRHDSGY
T33 construct: Aβ 1-10
T33 peptide: DAEFRHDSGY

AIIGLMVGGV = target: T34, AIIGLMVGGV
T34 construct: Aβ 30-39
T34 peptide: AIIGLMVGGV

GLMVGGVVIA = target: T35, GLMVGGVVIA
T35 construct: Aβ 33-42
T35 peptide: GLMVGGVVIA

DVGSNKGAII = target: T36, DVGSNKGAII
T36 construct: Aβ 23-32
T36 peptide: DVGSNKGAII

HDSGYEVHHQ = target: T37, HDSGYEVHHQ
T37 construct: Aβ 6-15
T37 peptide: HDSGYEVHHQ

VGSNKGAIIG = target: T38, VGSNKGAIIG
T38 construct: Aβ 24-33; this label stands at two neighbouring bars
T38 peptide: VGSNKGAIIG

MDAEFRHDSG = target: T39, MDAEFRHDSG
T39 construct: APP flank + Aβ 1-9
T39 peptide: MDAEFRHDSG

KMDAEFRHDS = target: T40, KMDAEFRHDS
T40 construct: APP flank + Aβ 1-8
T40 peptide: KMDAEFRHDS

IGLMVGGVVI = target: T41, IGLMVGGVVI
T41 construct: Aβ 32-41
T41 peptide: IGLMVGGVVI

GYEVHHQKLV = target: T42, GYEVHHQKLV
T42 construct: Aβ 9-18
T42 peptide: GYEVHHQKLV

B1: mouse 15C11 antibody (antibody, V domains shown)
VH: EVKLVESGGGLVQPGGSLKLSCAASGFTFSRYSMSWVRQTPEKRLELVAKISNSGDNTYYPDTLKGRFTISRDNAQNTLYLQMSSLKSEDTAMYYCASGDYWGQGTTLTVSS
VL: DVVMTQTPLSLPVSLGDQASISCRSSQSLVHSDGNTYLHWYLQKPGQSPKLLIYKVSNRFSGVPDRFSGSGSGTDFTLKISRVEAEDLGVYFCSQSTHVWTFGGGTKLEIK
notes: Mouse monoclonal antibody from a hybridoma; The claims number the mature chains 1-111 and 1-112; also called mouse antibody 15C11
B1: no binding (NKGAIIGLMV); binds (VFFAEDVGSN); binds (HHQKLVFFAE). B1: no binding (GAIIGLMVGG); binds (KLVFFAEDVG); no binding (MVGGVVIATV). B1: no binding (DSGYEVHHQK); no binding (KGAIIGLMVG); no binding (EVHHQKLVFF). B1: no binding (SNKGAIIGLM); no binding (YEVHHQKLVF); no binding (VKMDAEFRHD). B1: no binding (AEFRHDSGYE); binds (HQKLVFFAED); no binding (FRHDSGYEVH). B1: binds (LVFFAEDVGS); binds (QKLVFFAEDV); no binding (ISEVKMDAEF). B1: no binding (SEVKMDAEFR); no binding (RHDSGYEVHH); no binding (EFRHDSGYEV). B1: binds (FFAEDVGSNK); no binding (AEDVGSNKGA); no binding (EVKMDAEFRH). B1: no binding (IIGLMVGGVV); no binding (EEISEVKMDA); no binding (SGYEVHHQKL). B1: no binding (FAEDVGSNKG); no binding (LMVGGVVIAT); no binding (GSNKGAIIGL). B1: no binding (EISEVKMDAE); no binding (EDVGSNKGAI); no binding (DAEFRHDSGY). B1: no binding (AIIGLMVGGV); no binding (GLMVGGVVIA); no binding (DVGSNKGAII). B1: no binding (HDSGYEVHHQ); no binding (VGSNKGAIIG); no binding (MDAEFRHDSG). B1: no binding (KMDAEFRHDS); no binding (IGLMVGGVVI); no binding (GYEVHHQKLV).

Source: patent US20060165682A1 (Janssen / Centocor, published 2006)
